In paper PMC13233901:

B1: wild type (WT) estrogen receptor [human (endogenous in and MCF7)] / progesterone receptor [human (endogenous in and MCF7)] (parent)
chain 1: MTMTLHTKASGMALLHQIQGNELEPLNRPQLKIPLERPLGEVYLDSSKPAVYNYPEGAAYEFNAAAAANAQVYGQTGLPYGPGSEAAAFGSNGLGGFPPLNSVSPSPLMLLHPPPQLSPFLQPHGQQVPYYLENEPSGYTVREAGPPAFYRPNSDNRRQGGRERLASTNDKGSMAMESAKETRYCAVCNDYASGYHYGVWSCEGCKAFFKRSIQGHNDYMCPATNQCTIDKNRRKSCQACRLRKCYEVGMMKGGIRKDRRGGRMLKHKRQRDDGEGRGEVGSAGDMRAANLWPSPLMIKRSKKNSLALSLTADQMVSALLDAEPPILYSEYDPTRPFSEASMMGLLTNLADRELVHMINWAKRVPGFVDLTLHDQVHLLECAWLEILMIGLVWRSMEHPGKLLFAPNLLLDRNQGKCVEGMVEIFDMLLATSSRFRMMNLQGEEFVCLKSIILLNSGVYTFLSSTLKSLEEKDHIHRVLDKITDTLIHLMAKAGLTLQQQHQRLAQLLLILSHIRHMSNKGMEHLYSMKCKNVVPLYDLLLEMLDAHRLHAPTSRGGASVEETDQSHLATAGSTSSHSLQKYYITGEAEGFPATV
chain 2: MTELKAKGPRAPHVAGGPPSPEVGSPLLCRPAAGPFPGSQTSDTLPEVSAIPISLDGLLFPRPCQGQDPSDEKTQDQQSLSDVEGAYSRAEATRGAGGSSSSPPEKDSGLLDSVLDTLLAPSGPGQSQPSPPACEVTSSWCLFGPELPEDPPAAPATQRVLSPLMSRSGCKVGDSSGTAAAHKVLPRGLSPARQLLLPASESPHWSGAPVKPSPQAAAVEVEEEDGSESEESAGPLLKGKPRALGGAAAGGGAAAVPPGAAAGGVALVPKEDSRFSAPRVALVEQDAPMAPGRSPLATTVMDFIHVPILPLNHALLAARTRQLLEDESYDGGAGAASAFAPPRSSPCASSTPVAVGDFPDCAYPPDAEPKDDAYPLYSDFQPPALKIKEEEEGAEASARSPRSYLVAGANPAAFPDFPLGPPPPLPPRATPSRPGEAAVTAAPASASVSSASSSGSTLECILYKAEGAPPQQGPFAPPPCKAPGASGCLLPRDGLPSTSASAAAAGAAPALYPALGLNGLPQLGYQAAVLKEGLPQVYPPYLNYLRPDSEASQSPQYSFESLPQKICLICGDEASGCHYGVLTCGSCKVFFKRAMEGQHNYLCAGRNDCIVDKIRRKNCPACRLRKCCQAGMVLGGRKFKKFNKVRVVRALDAVALPQPVGVPNESQALSQRFTFSPGQDIQLIPPLINLLMSIEPDVIYAGHDNTKPDTSSSLLTSLNQLGERQLLSVVKWSKSLPGFRNLHIDDQITLIQYSWMSLMVFGLGWRSYKHVSGQMLYFAPDLILNEQRMKESSFYSLCLTMWQIPQEFVKLQVSQEEFLCMKVLLLLNTIPLEGLRSQTQFEEMRSSYIRELIKAIGLRQKGVVSSSQRFYQLTKLLDNLHDLVKQLHLYCLNTFIQSRALSVEFPEMMSEVIAAQLPKILAGMVKPLLFHKK

Variants of: B1
Test: proximity ligation assay (PLA)
Conditions: with progesterone receptor [human (endogenous in T47D and MCF7)], read off a plot
[1] = MCF7 cells, basal (no added hormone), parent: 1.2
[2] = T47D cells, basal (no added hormone), parent: 6.4

response [1] [Dots/Cell]	response [2] [Dots/Cell]	response (T47D cells, R5020 (10 nM) for 30 min, parent: 11) [Dots/Cell]	Variant
0.58	1		chain 1 D538G
0.68	1.6	13	chain 1 Y537S
